# Measured values published in the supplement of paper PMC10598134.
# ± gives the standard deviation.
# Key:
# [1] = collision cross section of unmodified peptide (TIMS, N2, iRT-aligned); higher = larger / more extended gas-phase ion
# Procedure: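 Unmodified synthetic counterpart peptides (ProteomeTools / JPT), analysed by nanoLC-TIMS-QTOF (dda-PASEF). 1/K0 was aligned run-wise to spiked iRT peptides and converted to CCS in N2 (Mason-Schamp). Values are the mean of 1-3 technical replicates for the most abundant feature at each charge state. The same unmodified peptide is repeated across rows and is averaged.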
# [2] = collision cross section of modified peptide (TIMS, N2, iRT-aligned); higher = larger / more extended gas-phase ion
# How it was run: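 Collision cross section values rest on the Mason-Schamp equation applied to calibrated, run-aligned mobility data from synthetic peptides. Mobility (1/K0) was calibrated with three reference ions and aligned per run to the median iRT peptide deviation, and 1–3 technical replicates of the most abundant feature per charge state were averaged. Data came from a timsTOF Pro/HT in dda-PASEF mode (nitrogen, ~2.4 mbar) after a 120-min nanoflow C18 gradient at 60 °C.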
# [3] = charge state: 2, modification: Biotin
# [4] = charge state: 2, modification: Acetyl (K)
# [5] = charge state: 2, modification: Formyl
# [6] = charge state: 2, modification: Succinyl
# [7] = charge state: 2, modification: GlyGly (K)
# [8] = charge state: 3, modification: GlyGly (K)
# [9] = charge state: 2, modification: Crotonyl
# [10] = charge state: 2, modification: Phospho (Y)
# [11] = charge state: 3, modification: Crotonyl
# [12] = charge state: 2, modification: Dimethyl (K)
# [13] = charge state: 3, modification: Dimethyl (K)
# [14] = charge state: 2, modification: Trimethyl (K)
# [15] = charge state: 3, modification: Trimethyl (K)
# [16] = charge state: 2, modification: hydroxyisobutyryl
# [17] = charge state: 3, modification: Methyl (R)
# [18] = charge state: 2, modification: HexNAc (ST)
# [19] = charge state: 3, modification: Glutarylation
substance,measurement,setting,value
APIISGVTK,collision cross section,[1]; charge state: 2,322.45 ± 0.15 Å²
TQAYQDQKPGTSGLR,collision cross section,[1]; charge state: 2,425.76 ± 1.4 Å²
same,collision cross section,[1]; charge state: 3,489.83 ± 5.9 Å²
GRGGAESHTFK,collision cross section,[1]; charge state: 2,353.4 ± 0.58 Å²
same,collision cross section,[1]; charge state: 3,440.9 ± 5.6 Å²
VLTANSNPSSPSAAKR,collision cross section,[1]; charge state: 2,431.51 ± 2 Å²
same,collision cross section,[1]; charge state: 3,517.98 ± 8.8 Å²
LPTTAASTPDAVDK,collision cross section,[1]; charge state: 2,396.7 ± 0.66 Å²
DESFLGKLGGTLAR,collision cross section,[1]; charge state: 2,409.59 ± 1.4 Å²
same,collision cross section,[1]; charge state: 3,475.21 ± 2.7 Å²
PGGEGPQCEKTTDVK,collision cross section,[1]; charge state: 2,411.04 ± 2 Å²
same,collision cross section,[1]; charge state: 3,465.58 ± 3.8 Å²
PSIHGGSGGRGVSVSSAR,collision cross section,[1]; charge state: 3,503.12 ± 0.69 Å²
ALYETELADAR,collision cross section,[1]; charge state: 2,385.99 ± 0.47 Å²
AYPLADAHLTK,collision cross section,[1]; charge state: 2,383.63 ± 0.16 Å²
same,collision cross section,[1]; charge state: 3,452.45 ± 1.1 Å²
GGPGAPGAPGPKGESGDYK,collision cross section,[1]; charge state: 2,431.57 ± 1 Å²
same,collision cross section,[1]; charge state: 3,489.8 ± 6.1 Å²
HLRGHGPQPPLR,collision cross section,[1]; charge state: 2,396.64 Å²
same,collision cross section,[1]; charge state: 3,492.83 ± 0.94 Å²
GSLEKGSPEDK,collision cross section,[1]; charge state: 2,350.53 ± 1.5 Å²
same,collision cross section,[1]; charge state: 3,434.36 ± 3.6 Å²
LLEQKTQESQK,collision cross section,[1]; charge state: 2,394.71 ± 1.6 Å²
same,collision cross section,[1]; charge state: 3,453.32 ± 3.2 Å²
DSRGGGGNFGPGPGSNFR,collision cross section,[1]; charge state: 3,474.13 ± 0.75 Å²
DFSLTSSSQTPGATK,collision cross section,[1]; charge state: 2,412.17 ± 0.66 Å²
same,collision cross section,[1]; charge state: 3,461.25 ± 8.8 Å²
LYLPVQNK,collision cross section,[1]; charge state: 2,336.72 ± 0.73 Å²
LYAVHQEGNK,collision cross section,[1]; charge state: 2,357.2 ± 1.5 Å²
same,collision cross section,[1]; charge state: 3,449.31 ± 1.1 Å²
FRSGNYR,collision cross section,[1]; charge state: 2,328.09 ± 0.7 Å²
same,collision cross section,[1]; charge state: 3,402.54 ± 6.1 Å²
SLIGKVDGTSHVTGK,collision cross section,[1]; charge state: 2,430.43 ± 0.65 Å²
same,collision cross section,[1]; charge state: 3,491.82 ± 0.22 Å²
GFPGAPGLPGLK,collision cross section,[1]; charge state: 2,357.61 ± 0.4 Å²
ASAISIKLGSSK [_ASAISIK(Biotin)LGSSK_],collision cross section,[2]; [3],410.18 ± 1.1 Å²
ANLEKAQAELVGTADEATR [_ANLEK(Methyl (K))AQAELVGTADEATR_],collision cross section,"[2]; charge state: 2, modification: Methyl (K)",471.05 Å²
same,collision cross section,"[2]; charge state: 3, modification: Methyl (K)",523.1 ± 0.87 Å²
LTEKELAEAASK [_LTEK(Acetyl (K))ELAEAASK_],collision cross section,[2]; [4],387.12 ± 0.45 Å²
RGVGAGAIAK [_R(Citrullination (R))GVGAGAIAK_],collision cross section,"[2]; charge state: 2, modification: Citrullination (R)",319.31 Å²
SPDEAYAIAKK [_SPDEAYAIAK(Formyl)K_],collision cross section,[2]; [5],364.33 ± 1 Å²
VDIDVPDVNIEGPDAKLK [_VDIDVPDVNIEGPDAK(Malonyl)LK_],collision cross section,"[2]; charge state: 2, modification: Malonyl",474.57 Å²
KFGVLSDNFK [_K(Succinyl)FGVLSDNFK_],collision cross section,[2]; [6],376.58 ± 0.24 Å²
LTSLNVKYNNDK [_LTSLNVK(GlyGly (K))YNNDK_],collision cross section,[2]; [7],424.54 ± 1.4 Å²
same,collision cross section,[2]; [8],491.6 ± 1.1 Å²
TFGKAAGPSLSHTSGGTQSK [_TFGK(GlyGly (K))AAGPSLSHTSGGTQSK_],collision cross section,[2]; [8],526.57 ± 0.59 Å²
ALASIDSKLNQAK [_ALASIDSK(Crotonyl)LNQAK_],collision cross section,[2]; [9],401.19 ± 0.9 Å²
FNALFAQGNYSEAAK [_FNALFAQGNY(Phospho (Y))SEAAK_],collision cross section,[2]; [10],426.34 ± 0.64 Å²
FSAYIKNSNPALNDNLEK [_FSAYIK(Crotonyl)NSNPALNDNLEK_],collision cross section,[2]; [9],486.61 ± 2.3 Å²
DLGKFQVATDALK [_DLGK(Biotin)FQVATDALK_],collision cross section,[2]; [3],425.47 ± 0.89 Å²
TPNLYIYSKK [_TPNLYIYSK(Crotonyl)K_],collision cross section,[2]; [9],385.36 Å²
same,collision cross section,[2]; [11],432.18 Å²
LLFSNTAAQKLR [_LLFSNTAAQK(Crotonyl)LR_],collision cross section,[2]; [9],404.43 ± 0.55 Å²
same,collision cross section,[2]; [11],483.58 ± 1.6 Å²
DYSSGFGGKYGVQADR [_DYSSGFGGK(Formyl)YGVQADR_],collision cross section,[2]; [5],429.11 ± 0.79 Å²
RGATPPAPPRR [_R(Citrullination (R))GATPPAPPRR_],collision cross section,"[2]; charge state: 3, modification: Citrullination (R)",462.57 ± 1.3 Å²
LQAAYAGDKADDIQK [_LQAAYAGDK(Dimethyl (K))ADDIQK_],collision cross section,[2]; [12],436.04 ± 1.1 Å²
same,collision cross section,[2]; [13],470.88 ± 1.6 Å²
LQEKVESAQSEQK [_LQEK(Trimethyl (K))VESAQSEQK_],collision cross section,[2]; [14],419.24 ± 2.2 Å²
same,collision cross section,[2]; [15],470.87 ± 1.8 Å²
ITASLCDLKSR [_ITASLCDLK(hydroxyisobutyryl)SR_],collision cross section,[2]; [16],395.08 ± 0.81 Å²
DYSSGFGGKYGVQADR [_DYSSGFGGK(hydroxyisobutyryl)YGVQADR_],collision cross section,[2]; [16],442.2 ± 0.79 Å²
DLSTVEALQNLKNLK [_DLSTVEALQNLK(Formyl)NLK_],collision cross section,[2]; [5],474.81 ± 0.7 Å²
ANLEKAQAELVGTADEATR [_ANLEK(Acetyl (K))AQAELVGTADEATR_],collision cross section,[2]; [4],471.91 ± 3.1 Å²
same,collision cross section,"[2]; charge state: 3, modification: Acetyl (K)",570.31 ± 0.74 Å²
AQSYAQQLGR [_AQSY(Phospho (Y))AQQLGR_],collision cross section,[2]; [10],354.7 ± 0.065 Å²
GTITVSAQELKDNR [_GTITVSAQELK(GlyGly (K))DNR_],collision cross section,[2]; [7],442.89 ± 0.96 Å²
same,collision cross section,[2]; [8],487.43 ± 0.34 Å²
FDDTNPEKEEAK [_FDDTNPEK(Trimethyl (K))EEAK_],collision cross section,[2]; [14],399.27 ± 1.6 Å²
same,collision cross section,[2]; [15],487.6 ± 1.9 Å²
TVSKVDDFLANEAK [_TVSK(Acetyl (K))VDDFLANEAK_],collision cross section,[2]; [4],417.71 ± 1.3 Å²
GTGRGGGGGGGGGAPR [_GTGR(Methyl (R))GGGGGGGGGAPR_],collision cross section,[2]; [17],445.93 ± 3.2 Å²
VLTANSNPSSPSAAKR [_VLTANSNPSSPSAAK(Trimethyl (K))R_],collision cross section,[2]; [14],445.51 ± 0.016 Å²
same,collision cross section,[2]; [15],518.89 ± 1.6 Å²
IINEPTAAAIAYGLDKK [_IINEPTAAAIAYGLDK(Crotonyl)K_],collision cross section,[2]; [9],463.28 ± 1.3 Å²
same,collision cross section,[2]; [11],561.41 ± 1.2 Å²
TEVLSPNSKVESK [_TEVLSPNSK(Propionyl)VESK_],collision cross section,"[2]; charge state: 2, modification: Propionyl",413.62 ± 0.97 Å²
same,collision cross section,"[2]; charge state: 3, modification: Propionyl",453.73 Å²
SGFGKFER [_SGFGK(Dimethyl (K))FER_],collision cross section,[2]; [12],334.57 ± 1.1 Å²
DVNAAIAAIKTK [_DVNAAIAAIK(GlyGly (K))TK_],collision cross section,[2]; [7],401.67 ± 0.99 Å²
same,collision cross section,[2]; [8],465.81 ± 1.1 Å²
SLKLNTAEDAK [_SLK(Trimethyl (K))LNTAEDAK_],collision cross section,[2]; [14],378.59 ± 0.02 Å²
same,collision cross section,[2]; [15],461.43 ± 2.4 Å²
SEASSEFAKK [_SEASSEFAK(Dimethyl (K))K_],collision cross section,[2]; [12],358.79 ± 0.58 Å²
same,collision cross section,[2]; [13],422.66 ± 2.8 Å²
ATVASSTQKFQDLGVK [_ATVASSTQK(Succinyl)FQDLGVK_],collision cross section,[2]; [6],444.76 ± 1.1 Å²
same,collision cross section,"[2]; charge state: 3, modification: Succinyl",493.48 ± 0.68 Å²
STGLELETPSLVPVKK [_STGLELETPSLVPVK(Trimethyl (K))K_],collision cross section,[2]; [14],461.73 ± 1.2 Å²
same,collision cross section,[2]; [15],522.47 ± 0.88 Å²
PASGAGAGAGAGKR [_PASGAGAGAGAGK(Crotonyl)R_],collision cross section,[2]; [9],364.92 ± 9.9 Å²
same,collision cross section,[2]; [11],464.44 ± 2.8 Å²
HFGPVPPSQGRGR [_HFGPVPPSQGR(Methyl (R))GR_],collision cross section,[2]; [17],491.26 ± 0.38 Å²
VLSIGDGIAR [_VLS(HexNAc (ST))IGDGIAR_],collision cross section,[2]; [18],372.66 ± 0.12 Å²
LSTPPPLAEEEGLASR [_LS(HexNAc (ST))TPPPLAEEEGLASR_],collision cross section,[2]; [18],448.88 Å²
same,collision cross section,"[2]; charge state: 3, modification: HexNAc (ST)",503.24 Å²
LGVATVAKGVCGACK [_LGVATVAK(Butyryl)GVCGACK_],collision cross section,"[2]; charge state: 2, modification: Butyryl",418.39 ± 0.77 Å²
same,collision cross section,"[2]; charge state: 3, modification: Butyryl",491.64 Å²
VFIGNLNTLVVKKK [_VFIGNLNTLVVK(Trimethyl (K))KK_],collision cross section,[2]; [15],488.61 ± 1.1 Å²
GYLGPEQLPDCLK [_GY(Phospho (Y))LGPEQLPDCLK_],collision cross section,[2]; [10],400.34 ± 0.08 Å²
YIEIYVQKVNPSR [_YIEIYVQK(Dimethyl (K))VNPSR_],collision cross section,[2]; [12],441.4 ± 1.2 Å²
same,collision cross section,[2]; [13],503.81 ± 1.6 Å²
LQAAYAGDKADDIQK [_LQAAYAGDK(GlyGly (K))ADDIQK_],collision cross section,[2]; [7],455.93 ± 1.6 Å²
same,collision cross section,[2]; [8],505.34 ± 0.35 Å²
INNFSADIKDSK [_INNFSADIK(Crotonyl)DSK_],collision cross section,[2]; [9],405.9 ± 0.28 Å²
same,collision cross section,[2]; [11],458.84 ± 1.6 Å²
DSINFLDHINGKK [_DSINFLDHINGK(Gluratylation)K_],collision cross section,[2]; [19],460.36 ± 1.7 Å²
INNFSADIKDSK [_INNFSADIK(Gluratylation)DSK_],collision cross section,"[2]; charge state: 2, modification: Glutarylation",404.4 ± 4.7 Å²
same,collision cross section,[2]; [19],469.07 Å²
VFIGNLNTLVVKK [_VFIGNLNTLVVK(Trimethyl (K))K_],collision cross section,[2]; [14],435.19 ± 1 Å²
same,collision cross section,[2]; [15],485.88 ± 1.8 Å²
